We go through four molecules from paper PMC4674680 (2015).

The chains are these.
B1: iBox24C (peptide)
chain: SRQPLVLGDNCFADLVHNWMELPE
modifications: synthetic peptide; taken as the C-terminal 24 residues (paper numbering 180-203) of the 38-aa iBox; 4XBR position = Inka1 paper number minus 153; exact limits are only in Fig. 1d
B2: iBox-C24 (peptide)
chain: VSRFAALMSCRSRQPIICNDVSYL
modifications: synthetic peptide; exact limits are only in Fig. 1d; taken as the last 24 residues because the text gives a 24mer of iBox-C (C-terminal 22 aa of Inka1)
B3: GST-iBox (Inka1 166–203) (domain or fragment)
chain: EAEDWTAALLNRGRSRQPLVLGDNCFADLVHNWMELPE
modifications: GST carrier left out. Limits 166-203 are the paper's, taken from the 4XBR fusion: Flag/SGS 1-12, iBox 13-50, EF linker 51-52, PAK4 278-591 from 53 (12+38+2+314=366). Entity position = paper number - 153 (F191=F38, L194=L41, V195=V42, P(0)=P30). The paper's Inka1 numbering may differ from UniProt Q96EL1 (paper's C-terminus is 285, entry is 287 aa).

The target in this assay is 6His–PAK4cat (PAK4 286–591) (human, UniProt O96013 286-591). The assay can be described thus: kinase activity inhibition (GST-Raf13 phosphorylation).
6His–PAK4cat (PAK4 286–591), sequence (O96013 286-591): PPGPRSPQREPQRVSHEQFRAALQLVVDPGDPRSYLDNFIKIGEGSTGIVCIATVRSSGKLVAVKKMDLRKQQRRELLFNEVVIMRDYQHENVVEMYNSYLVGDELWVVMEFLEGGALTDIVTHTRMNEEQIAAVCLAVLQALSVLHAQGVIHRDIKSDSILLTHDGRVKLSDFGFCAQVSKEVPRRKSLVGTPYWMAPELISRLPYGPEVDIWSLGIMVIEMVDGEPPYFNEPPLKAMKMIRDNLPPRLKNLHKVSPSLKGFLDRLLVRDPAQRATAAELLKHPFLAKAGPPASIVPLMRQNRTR
In general, IC50 refers to the point on the concentration scale where inhibition reaches its midpoint. Molecule B1 had an IC50 of 382 nM.
As to AEDWTAALLNRGRSRQPLVLGDW [iBox 23mer synthetic peptide], the IC50 was found to be 229 nM. This IC50 is about 1.7-fold lower than that of the molecule before.
In the case of B2, the IC50 is 300 nM.
For B3, the IC50 amounted to 36 nM. Compared with the last molecule, the IC50 is about 8.3-fold lower.
